# ± gives the uncertainty stated by the source.
# Experiment: amyloid nucleation score (Sup35N fusion, yeast selection) (log enrichment); library NNK1; higher = more nucleation; inactive = no reads after selection
# How it was run: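 Peptides of 20 random codons, each fused to Sup35N, were expressed in psi-negative yeast. Cells were induced with 100 μM copper sulfate for 24 hours and grown 7 days at 30°C on medium lacking adenine and uracil, and plasmid inserts before and after selection were Illumina-sequenced. Nucleation scores are DiMSum log enrichments of output over input reads, centred on the mode score of non-aggregating sequences, and sequences under 100 input reads were excluded.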
row,Substance,amyloid nucleation score
1,GTDYIKVSASPRSFMYDSSV,1.88 ± 0.62
2,GTFSDAFVLLIFCLYGINYL,1.54 ± 0.53
3,GTHLYS,0.78 ± 0.38
4,GTVVG,0.041 ± 0.54
5,GTWLSMLDSSV,-0.32 ± 0.79
6,GTYLAFYSLSLCRYTKCLER,-0.22 ± 0.47
7,GVACTARCMCKFNRHPGVCE,-0.274 ± 1.1
8,GVCALAHRAPIWDQFVGMLV,0.109 ± 0.28
9,GVCRDAVGGVTYDK,-0.363 ± 1.5
10,GVCVKGKRWDAEGVLRNAYT,1.41 ± 0.46
11,GVFRLMDRNNI,0.653 ± 0.61
12,GVFSSQDTRAIDLCSGVYVM,0.003 ± 1.2
13,GVGEIVSNRFAIS,-0.409 ± 1
14,GVGWISKPNHLDTFITTS,0.738 ± 0.35
15,GVLGTGMRNCA,0.277 ± 0.88
16,GVLRSSTSTVRGSCAGFHRL,0.29 ± 0.43
17,GVMYLKRKLRCYMGINYVFH,0.074 ± 0.31
18,GVNLRSNRESSVCDNWRGLR,0.423 ± 0.42
19,GVQWKLIFIGQCAVAVAWLA,-2.05 ± 1.8
20,GVSMVGGHATLLG,-0.206 ± 1.2
21,GVSSLLGRHRRGVSFEGDSV,-0.65 ± 0.54
22,GVTYKPYGVSNW,-0.616 ± 0.69

row,Substance,amyloid nucleation score
1,GVVCCTANF,5.68 ± 0.065
2,GVVGYGIWHSLGVRLIQNLC,0.389 ± 0.93
3,GVYARQIFYNS,0.021 ± 0.24
4,GWDYLFFLFTFCYV,-0.771 ± 1.1
5,GWQDSLYLYYFTKFCRNQGG,-0.559 ± 0.46
6,GWQGL,-0.202 ± 0.53
7,GYAFVY,-0.037 ± 0.52
8,GYCTPNDPVIFWDFRVMTGS,-0.544 ± 0.3
9,GYELSMKATIRVVCRAIYFC,0.62 ± 0.41
10,GYGNRNLALARGMLGQIL,0.215 ± 0.46
11,GYGWHLSANNPVSNIRCPRA,-0.407 ± 0.42
12,GYLSHII,-0.112 ± 0.51
13,GYMSKLEYLPTQLYLLSLRE,0.85 ± 0.44
14,GYNMTKAYQCVCFIGDLPGT,4.61 ± 0.13
15,GYNSVYHLSNVALR,0.928 ± 0.32
16,GYNWGFVHCSYRSSHFGSGF,0.348 ± 0.26
17,GYSAYRFGQCMSETGRRRIH,1.42 ± 0.72
18,GYSGLLYVSRVVSYLIHFWV,0.702 ± 0.47
19,GYSNFTNYLFQ,0.091 ± 0.28
20,GYTLRPNERPKIRQV,0.244 ± 0.63
21,HAFFHYWPVCQWV,4.57 ± 0.1
22,HATMVSALLVWGW,-0.286 ± 1.9

row,Substance,amyloid nucleation score
1,HCFYYCMANRL,0.488 ± 0.24
2,HCIPLALICGGSSSPVVEYL,0.686 ± 0.43
3,HCLSFMIFESNLIIFMNRIR,0.222 ± 0.2
4,HCMGGNLFLF,-0.463 ± 0.47
5,HCPELLLPPSKCTIINGNDK,1.52 ± 0.38
6,HCPKAVGINEWPEMRFYVNL,-0.05 ± 0.96
7,HDFYEDIVMEYVL,1.55 ± 0.51
8,HDIAIMSSVGFSTAHDICSE,0.26 ± 0.99
9,HDPDPVDYGCGWVSVSCGVA,0.819 ± 0.82
10,HDSSF,-0.038 ± 0.56
11,HESNMSMYYERYMLLSRNGS,0.269 ± 0.23
12,HFAPLFDYNLTGIKTLKTAD,0.1 ± 0.77
13,HFASRLMRKEFAVRFLRGFS,-0.608 ± 1.2
14,HFCMGWVYLPELMYRFYMCF,-0.494 ± 0.35
15,HFFDCHNSIEVSLISSCVCV,3.97 ± 0.065
16,HFFNVYGSNMVISSWDSRCE,6.23 ± 0.076
17,HFLVKCLLLLSVSSKLCVSR,0.564 ± 0.33
18,HFLVMITRL,5.15 ± 0.091
19,HFNFNFAQSRNEMLVASG,-1.16 ± 1.6
20,HFSGYMFCNPLTSGIVNATW,6.404 ± 0.045
21,HFSNIDNARNCSDSYWRYGI,0.168 ± 0.3
22,HGLLHQVSVMPGIPSMAFNI,-0.016 ± 0.68

row,Substance,amyloid nucleation score
1,HGMWNGFTILM,3.26 ± 0.11
2,HHKPRPNIQFFRYSCKERAS,0.035 ± 1
3,HHLVISCDSLENASYRLCIQ,1.45 ± 0.43
4,HHPYFSAMM,0.22 ± 0.54
5,HHTQE,-0.557 ± 1.6
6,HIGIWTIPSRKEGR,inactive
7,HIKASDFIW,-0.333 ± 0.31
8,HIMRDV,-1.13 ± 1.4
9,HIMYSLKASSHWSPIVFSHH,0.669 ± 0.59
10,HIPYVYGPIIRGEATYTEGV,-0.29 ± 1.2
11,HIVNCVKML,0.788 ± 0.63
12,HKCWVDGIVY,0.577 ± 0.48
13,HKTSKMLCLSI,0.241 ± 0.9
14,HLEGFYLGIWHGRSRVFSRN,2.77 ± 0.23
15,HLGGVWLLIHMRRSFPLDIW,0.207 ± 0.7
16,HLGLSNPFMMSFHV,-0.189 ± 0.34
17,HLLSGMITCDDLHGCGLEGI,0.344 ± 0.35
18,HLRCCIKTLRVSHYGGPALR,-0.596 ± 0.37
19,HLRNLKDFNVQPF,0.635 ± 1.2
20,HLVKHVLCSKCTFDVLIIIY,1.08 ± 0.21
21,HLVRRLYSKWMQT,-0.711 ± 0.96

# Reference: the supplement of paper PMC12042874
